A protein production outcome set (Wang et al. 2014)

Test: label from the status in PepcDB records

Which protein production does the source give for “MAWNTNLRWRLPLTCLLLQVIMVILFGVFVRYDFEADAHWWSERTHKNLSDMENEFYYRYPSFQDVHVMVFVGFGFLMTFLQRYGFSAVGFNFLLAAFGIQWALLMQGWFHFLQDRYIVVGVENLINADFCVASVCVAFGAVLGKVSPIQLLIMTFFQVTLFAVNEFILLNLLKVKDAGGSMTIHTFGAYFGLTVTRILYRRNLEQSKERQNSVYQSDLFAMIGTLFLWMYWPSFNSAISYHGDSQHRAAINTYCSLAACVLTSVAISSALHKKGKLDMVHIQNATLAGGVAVGTAAEMMLMPYGALIIGFVCGIISTLGFVYLTPFLESRLHIQDTCGINNLHGIPGIIGGIVGAVTAASASLEVYGKEGLVHSFDFQGFNGDWTARTQGKFQIYGLLVTLAMALMGGIIVGLILRLPFWGQPSDENCFEDAVYWEMPEGNSTVYIPEDPTFKPSGPSVPSVPMVSPLPMASSVPLVP” here?
The protein production was “not failed”.

With “MPGFDYKFLEKPKRRLLCPLCGKPMREPVQVSTCGHRFCDTCLQEFLSEGVFKCPEDQLPLDYAKIYPDPELEVQVLGLPIRCIHSEEGCRWSGPLRHLQGHLNTCSFNVIPCPNRCPMKLSRRDLPAHLQHDCPKRRLKCEFCGCDFSGEAYESHEGMCPQESVYCENKCGARMMRRLLAQHATSECPKRTQPCTYCTKEFVFDTIQSHQYQCPRLPVACPNQCGVGTVAREDLPGHLKDSCNTALVLCPFKDSGCKHRCPKLAMARHVEESVKPHLAMMCALVSRQRQELQELRRELEELSVGSDGVLIWKIGSYGRRLQEAKAKPNLECFSPAFYTHKYGYKLQVSAFLNGNGSGEGTHLSLYIRVLPGAFDNLLEWPFARRVTFSLLDQSDPGLAKPQHVTETFHPDPNWKNFQKPGTWRGSLDESSLGFGYPKFISHQDIRKRNYVRDDAVFIRAAVELPRKILS” as the sequence, how does the protein production read?
The protein production was “not failed”.

For “MGGEDDELKGLLGLPEEETELDNLTEFNTAHNKRISTLTIEEGNLDIQRPKRKRKNSRVTFSEDDEIINPEDVDPSVGRFRNMVQTAVVPVKKKRVEGPGSLGLEESGSRRMQNFAFSGGLYGGLPPTHSEAGSQPHGIHGTALIGGLPMPYPNLAPDVDLTPVVPSAVNMNPAPNPAVYNPEAVNEPKKKKYAKEAWPGKKPTPSLLI”, which protein production is on record?
The protein production was “not failed”.

With “MISWRDRLTKALPQIAVVVHDLLMVWVCWQLLHAGRYSMLRDAPNLPLWDWRTAVVLVAQGLVFWKMGLYRGLWRFASVPDLWNIFKASFLGLVAIVLALAYDRLDGVPLSVLVVYPFALSALLGTPRLLYRAWKDYQIAHSGDAAQRVLILGAGRAAEGLVRDLRRTGAFVPVGYLDDANNLHGAKIQGLNVLGNLDQAAAIAKETAAKLLVIAIPSLDASGMQRVVAICESTGLPFRMVPKLINVLEGRSLPGELKEVAIEDLLNRKPVTPDWRLIRDWLTNKTVMVTGAGGSIGSEVCRQCARHGARRIVLLEIDELALLTIDSDLRRLFPDIEVVRVLGDCGDPAVVAHALNTATPDAVFHAAAYKQVPLLEEQLREAVRNNVLATENVARACQRARIETFVFISTDKAVEPVNVLGASKRYAEMICQSLDARDAPTRFITVRFGNVLDSAGSVVPLFREQIRQGGPVTVTHPDVTRYFMTIPEACQLVIQAAASASHGAIYTLDMGEPVPIRLLAEQMIRLAGKQPGKDVAILYTGLRPGEKLHETLFYSDEAYRPTAHPKILEAGVREFSHEQVLQLVMRLREAVNRYDIKAMETVLGSLMPDFAAARRKVDARSDTVVPFPAREVRRL” as the sequence, how does the protein production read?
Its protein production is “failed”.

With “MTNITASIVLYNNPIDQIRQCIESMQADTRVHVLLVDNSEKKGGYTGLAADNVEILDAPGNVGFGRGHNLVLGRLAALRSEVHLVVNPDIVVSAGCVQAVADVLRQRKDVTLVGPRVVSPDGALYRSCKLLPTPWNLFARRFAPRQLYAAADARYELEAFGYDRELRLHNLSGAFLAFRSEAFTALGGFDPRYFMYLEDVDICRRAAGLGAVIFLPQAEVVHEHGKGSYRSWRLLREHMRSAILYFNRFGWFVDAERRLLNRETLARVNDMRSVVLEHHHHHH” as the sequence, how does the protein production read?
The protein production was “failed”.

Which protein production does the source give for “MASYVFIRVSKIRKGYFPVLLAIGFAITFAEGFILFLVNFGAIPTNGPTIQLVPQIIMQNPNPLIRFYGTLILLCFLNTIVLSIFYATIAKLLPKFSG” here?
The protein production was “failed”.

With “MDCKKVIADYWNLRSSTYTNGENGFDAEERIIWRRMLENFLPPGQRLKVLDVGTGPGFLALLFAEMGHEVTAVDISMGMLEKARNNAKTLGVKVDLFHGDAEKLPFEDCYFDLVVNKYLLWTLPQPEIAVQEWMRVLKPGGRVFAIDGNWFNPRPDKKVKRWITGVVNPDMNKNPSRSFFNEFYGPIRKALPLYEDISPENVSVVFSKMGFENTAVNPLQEAQKFKKSKLPFIQRFLRDTPIFLITGQKATE” as the sequence, how does the protein production read?
Its protein production is “failed”.

Which protein production does the source give for “MDDKTAGGKIVMNKEQLLLFMENRRKQEDHRLALAKEATRSEMVDRKASGKIIMNHDQQLMFNEDHRLAVKKASRSEMVDLEGMGSEASVIMSNVPQPTSFSEDHKLAIKNIISKIVKEIRDRDHPA” here?
The protein production was “failed”.

For “ELPKKRELCKFYITGFCARAENCPYMHGDFPCKLYHTTGNCINGDDCMFSHDPLTEETRELLDKMLADDAEAGAEDEKEVEELKK”, which protein production is on record?
The protein production was “not failed”.

Which protein production does the source give for “MEYQLQQLASLTLVGIKETYENGRQAQQHIAGFWQRCYQEGVIADLQLKNNGDLAGILGLCIPELDGKMSYMIAVTGDNSADIAKYDVITLASSKYMVFEAQGAVPKAVQQKMEEVHHYIHQYQANTVKSAPFFELYQDGDTTSEKYITEIWMPVKG” here?
Its protein production is “not failed”.

Which protein production does the source give for “MPEWAVILSICGLYLVLVLGLGVWSGRTVSASVDGYVAGDRTLGVIVLYFVLGASVFSSFAFLGAPGWAYSRGAAAFYIIAYGTVGMVPFYFLGPRARQVGEAFGFVTQAEMLAHRYDSRTLSVVLAALSVVAFVPYLTLQMKGAGLLLSTISDGVVPQWLGALAAYGVVLVYVFASGMMAIGWTNTVQGLFMMAVAWFLGLYLPETLHGGIQPMFEAIAASDKAAMLDVPGLAADGSPWSWAGYSSAVIVSAVGFSMWPHLFMRAFTAKSDRTLKLTVVLYPTFQLFLVPILLIGFAGVLAFPGVAPPDTIVPHLLTQIELSPVLVGLVCAGALAASMSSGDAILHAAASIGLRDGIKPLLAAPMTDTRQRQWIRGLVVATSATAYYFAVFSEVGIVALLLGAYGGVAQIFPLVFAAFYWPRATGAGALAGLLAGIGVNTLFLVAPHLRPFPLHEGVYGLAANIAVFLTVSLLTPPHDRDRLRAYTHSDRLAADETVAS” here?
The protein production was “failed”.

With “LDLQIIMDDLLNLLLKEFKLDLAVIRLVDEKGVLRVRSYSGKGIAGIAGKDWEPEIETYIGEAFLSNRLQFVNDTQYMTKPLTRELMQKEGIKSFAHIPISRKGEPPFGILSVFSRTIVGLFNEPFLNLLESLAGQLAQAVKIVTEMEAKEREREEKERILLENARVVKEMEIAKQIQLSLLPSAPPTLPRH” as the sequence, how does the protein production read?
The protein production was “failed”.

For “MNRNLLLLLCSLFCFIAIGKPSDFPPVPNPPKLINDFAGMLSPAEVAELERKVNTFNDSTSIEISVVIITNLGDYDIAEYAFQLGALWGIGKDKKDNGVLLLISKENRKAFIATGYGMEGVLPDARCKRIIQAELIPQFKRSNYFNGINFTIDAIMRYSKNEYTADPVAANANRIKPAYVLLFIIGVIILVSFLNRNNNSGSNRGGNNGGYGSGGGGLLGGLLGGAIGSGYRGRSYGGGFGSGSSGGGFGGFGGGGFGGGGAGGDW”, which protein production is on record?
Its protein production is “failed”.

For “MTPGSNIPLSAARVTVDVAAPVRLDVSGLLLTADGKVRSDDDFIFYNQPTGQGVTYRSGGGSAPDAIVVDTSAVPPGIEKIVVTASPDAAGQTFQGIEPTATIRNADDNAVLATFTPPQLGTETALVIVEVYLRNGAWKARAVGQGYSNGLAGIATDFGVTVEEPAAPATPPQPQAVTPPPPPAAAPTMPAAPPAPPAAPPAPAPGTGKINLDKGRVSLQKNQTVSLVKGGRPVLSQVKMGLGWEPAYRGKDIDLDASVIAYGPQRNHIDSCYFGKLSIVNGAIKHSGDNLTGEGGGDDEVIVVDLGRLPQEVSGLVFTVNSFSGQKFTEVAKAYCRLIDAASGEELVRFDLTSAEPQTGVMMAKLIRQYSGEWEMTAIGDFVKSRTVRGMVKPAAQAL”, which protein production is on record?
The protein production was “failed”.

For “MIPTISDVSTVEEWRSVAKDIVQRDGDVNWRATIVDWPGLGYSARPKMDYDTDVMEKFVVDFMNSPESPMSQSGNDDLVIIGGGHAATLALRATQRGLLKPSAIAAVAPTWAGPLPIVFGRDSSMVSRYGMLRGTLRAPGVGWMMYNMLVSNEKSIESQYKSHVYADQTNVTDAIIQSRYELTKQKGSRYVPAAFLTGLLDPVSSREEFLQLFADLEGKLPVMVMSTKGAPKRSKAEMEALRGAKGVSKFVEVEGALLPQEEYPSLVAQELYNFLQETFAKC”, which protein production is on record?
Its protein production is “failed”.
